In patent US20080274950A1 (BABRAHAM INSTITUTE, published 2008):

T1: human N-cadherin naturally expressed on DX3 melanoma cells (human, UniProt P19022 160-906)
T1 construct: also called DX3 Cells; N-cadherin+ve DX3 melanoma cells
T1 sequence: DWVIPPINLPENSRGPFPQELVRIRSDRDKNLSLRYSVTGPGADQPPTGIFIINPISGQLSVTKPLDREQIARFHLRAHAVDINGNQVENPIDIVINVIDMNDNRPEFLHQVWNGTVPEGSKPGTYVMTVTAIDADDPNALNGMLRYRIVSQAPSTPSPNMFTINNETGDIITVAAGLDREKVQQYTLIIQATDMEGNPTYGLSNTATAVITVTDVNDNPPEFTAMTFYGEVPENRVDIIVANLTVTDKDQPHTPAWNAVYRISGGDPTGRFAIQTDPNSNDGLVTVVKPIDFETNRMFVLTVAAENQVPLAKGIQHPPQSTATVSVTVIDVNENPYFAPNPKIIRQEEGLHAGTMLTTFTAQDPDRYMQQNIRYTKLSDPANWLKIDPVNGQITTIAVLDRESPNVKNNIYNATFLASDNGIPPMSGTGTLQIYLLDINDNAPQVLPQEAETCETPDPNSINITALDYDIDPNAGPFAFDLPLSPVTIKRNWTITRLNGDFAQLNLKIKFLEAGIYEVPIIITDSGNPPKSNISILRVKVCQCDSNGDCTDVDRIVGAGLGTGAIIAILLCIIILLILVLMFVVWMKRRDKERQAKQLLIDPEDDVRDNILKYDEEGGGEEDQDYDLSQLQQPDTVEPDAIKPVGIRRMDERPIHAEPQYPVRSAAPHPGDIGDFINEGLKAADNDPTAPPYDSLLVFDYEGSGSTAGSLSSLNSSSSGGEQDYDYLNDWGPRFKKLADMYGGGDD

T2: full length chicken N-cadherin with the N-terminus extended by two glycine residues (GG) expressed on K562 … (chicken, UniProt P10288 165-912)
T2 construct: whole, on cells; also called cells expressing the GG N-terminal extension mutant; K562 GG
T2 sequence: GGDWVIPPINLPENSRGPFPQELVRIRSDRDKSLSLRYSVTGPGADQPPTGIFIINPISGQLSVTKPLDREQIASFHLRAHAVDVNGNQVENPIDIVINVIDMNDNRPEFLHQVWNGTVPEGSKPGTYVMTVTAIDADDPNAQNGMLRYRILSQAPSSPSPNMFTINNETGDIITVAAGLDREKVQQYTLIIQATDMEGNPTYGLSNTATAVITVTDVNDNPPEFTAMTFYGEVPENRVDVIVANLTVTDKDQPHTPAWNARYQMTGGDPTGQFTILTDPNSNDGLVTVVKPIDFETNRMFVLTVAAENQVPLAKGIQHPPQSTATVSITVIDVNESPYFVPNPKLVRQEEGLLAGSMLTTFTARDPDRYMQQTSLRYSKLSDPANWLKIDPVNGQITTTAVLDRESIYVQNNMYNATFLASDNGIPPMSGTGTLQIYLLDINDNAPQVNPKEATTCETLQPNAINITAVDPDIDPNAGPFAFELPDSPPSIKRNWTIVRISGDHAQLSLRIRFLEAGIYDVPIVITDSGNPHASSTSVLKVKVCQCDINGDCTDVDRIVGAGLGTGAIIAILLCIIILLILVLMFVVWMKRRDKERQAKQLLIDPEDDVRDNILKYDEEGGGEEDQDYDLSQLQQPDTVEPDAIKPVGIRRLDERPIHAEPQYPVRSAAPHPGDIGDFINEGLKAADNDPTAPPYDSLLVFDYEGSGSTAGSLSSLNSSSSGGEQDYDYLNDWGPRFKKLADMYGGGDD


Assays:
[1] = target: T1, human N-cadherin naturally expressed on …; experiment: adhesion of DX3 cells to coated monomeric N-cadherin-Fc, oxidising buffer
Method: Monomeric or dimeric N-cadherin-Fc fusion protein in Cos cell supernatants was added as described for the ELISA assay. DX3 Cells, a human melanoma cell line which expresses N-cadherin, were dissociated with Cell Dissociation Solution (Sigma, code C5789), resuspended in HBSS with 2% FCS and assessed for adhesion to wild type or mutant N-cadherin-Fc as previously described (Corps et al., 2001). Microscopic examination established that the cells were present as a single cell suspension as they settled onto the plate. For assays conducted in reducing conditions, 10 mM DTT was present during the adhesion and washing steps. Determinations were conducted in triplicate and results are presented as mean +/−sem.

[2] = target: T2, full length chicken N-cadherin with the …; experiment: adhesion of K562 transfectants to coated N-cadherin Fc
Method: Adhesion tests were conducted substantially as described in Example 1. Briefly, K562 Cells or L cells transfected with wild type or mutant N-cadherin were allowed to settle for 45 minutes at 37° C. onto N-cadherin Fc fusion proteins coated at 1 μg/ml to a 96 well plate. Non-adherent cells were then washed off and residual adherent cells were quantitated by measuring acid phosphatase activity. Assays were conducted in quadruplicate and results are expressed as % cells adhering +/−SEM.

[3] = target: the molecule itself; experiment: bead aggregation assay, 1.25 mM CaCl2
Method: Dynabeads (Dynal Biotech) coupled to Protein A were coated with N-cadherin Fc at 1 μg/ml in calcium and magnesium-free HBSS containing 0.1% Tween 20, 1% FCS and 4 mM EDTA. Eppendorf tubes containing beads and fusion protein were rotated slowly for 1 hour at room temperature to allow binding to take place. The beads were then washed in the above assay buffer lacking EDTA and then resuspended in the same buffer supplemented with 1.25 mM CaCl₂. Beads were allowed to aggregate in a volume of 100 μl for 2 hours at 37° C. by slow rotation, in an eppendorf tube, at approximately 20 rpm. Aggregation was then assessed by light microscopy.
In the experiments described so far in this example, disruption of the salt bridge prevented intramolecular docking of Trp 2 in one or both components of the dimer. In an alternative strategy to prevent intramolecular docking, we removed Trp2 by introducing the mutation W2G or blocked the hydrophobic acceptor pocket with an isoleucine side chain projecting into the cavity using the mutation A801. N-cadherin Fc fusion proteins with these mutations were then tested against our panel of K562 transfectants (FIG. 17a). In keeping with the explanation given in FIG. 5, the W2G mutant acted as a strand acceptor and therefore adhered strongly to the E89A mutant whereas the A80I mutant was a strand donor and adhered to the GG extension mutant. […] In contrast, beads coated with the W2G or A801 mutants and tested separately clustered in twos and threes, whereas beads coated with the negative control mutant, D134A, were entirely monodisperse. To test whether all five extracellular domains of N-cadherin (EC1-EC5) are necessary for the strong adhesive interaction between the complementary mutants, we compared the adhesive activity of the W2G mutant prepared as a full length (EC1-EC5) Fc fusion protein with that of the same mutant prepared as a truncated construct containing only cadherin domains EC1 and EC2.

[4] = target: the molecule itself; experiment: disulphide-bonded cis-dimers on the cell surface; non-reducing SDS-PAGE and immunoblot

Binder | binding result [2] | binding result [4] | further results
monomeric chicken N-cadherin-Fc with the mutation D27C (Fc fusion, UniProt P10288 165-728, looked up, extracellular domain; not shown: hinge region, CH2 and CH3 domains of human IgG1 heavy chain (vector pIgSig)) DWVIPPINLPENSRGPFPQELVRIRSCRDKSLSLRYSVTGPGADQPPTGIFIINPISGQLSVTKPLDREQIASFHLRAHAVDVNGNQVENPIDIVINVIDMNDNRPEFLHQVWNGTVPEGSKPGTYVMTVTAIDADDPNAQNGMLRYRILSQAPSSPSPNMFTINNETGDIITVAAGLDREKVQQYTLIIQATDMEGNPTYGLSNTATAVITVTDVNDNPPEFTAMTFYGEVPENRVDVIVANLTVTDKDQPHTPAWNARYQMTGGDPTGQFTILTDPNSNDGLVTVVKPIDFETNRMFVLTVAAENQVPLAKGIQHPPQSTATVSITVIDVNESPYFVPNPKLVRQEEGLLAGSMLTTFTARDPDRYMQQTSLRYSKLSDPANWLKIDPVNGQITTTAVLDRESIYVQNNMYNATFLASDNGIPPMSGTGTLQIYLLDINDNAPQVNPKEATTCETLQPNAINITAVDPDIDPNAGPFAFELPDSPPSIKRNWTIVRISGDHAQLSLRIRFLEAGIYDVPIVITDSGNPHASSTSVLKVKVCQCDINGDCTDVDRIVGAGLGT |  |  | binding result [1]: binds
chicken N-cadherin Fc fusion protein with the mutations E89A and D134A (Fc fusion, UniProt P10288 165-728, looked up, extracellular domain; also called D134A in combination with E89A; not shown: hinge region, CH2 and CH3 domains of human IgG1 heavy chain (vector pIgSig)) DWVIPPINLPENSRGPFPQELVRIRSDRDKSLSLRYSVTGPGADQPPTGIFIINPISGQLSVTKPLDREQIASFHLRAHAVDVNGNQVANPIDIVINVIDMNDNRPEFLHQVWNGTVPEGSKPGTYVMTVTAIAADDPNAQNGMLRYRILSQAPSSPSPNMFTINNETGDIITVAAGLDREKVQQYTLIIQATDMEGNPTYGLSNTATAVITVTDVNDNPPEFTAMTFYGEVPENRVDVIVANLTVTDKDQPHTPAWNARYQMTGGDPTGQFTILTDPNSNDGLVTVVKPIDFETNRMFVLTVAAENQVPLAKGIQHPPQSTATVSITVIDVNESPYFVPNPKLVRQEEGLLAGSMLTTFTARDPDRYMQQTSLRYSKLSDPANWLKIDPVNGQITTTAVLDRESIYVQNNMYNATFLASDNGIPPMSGTGTLQIYLLDINDNAPQVNPKEATTCETLQPNAINITAVDPDIDPNAGPFAFELPDSPPSIKRNWTIVRISGDHAQLSLRIRFLEAGIYDVPIVITDSGNPHASSTSVLKVKVCQCDINGDCTDVDRIVGAGLGT | no binding (tested: Fc fusion protein coated at 1 µg/ml) |  | 
chicken N-cadherin Fc fusion protein with the pocket-blocking mutation A80I (Fc fusion, UniProt P10288 165-728, looked up, extracellular domain; also called A80I mutant; not shown: hinge region, CH2 and CH3 domains of human IgG1 heavy chain (vector pIgSig)) DWVIPPINLPENSRGPFPQELVRIRSDRDKSLSLRYSVTGPGADQPPTGIFIINPISGQLSVTKPLDREQIASFHLRAHIVDVNGNQVENPIDIVINVIDMNDNRPEFLHQVWNGTVPEGSKPGTYVMTVTAIDADDPNAQNGMLRYRILSQAPSSPSPNMFTINNETGDIITVAAGLDREKVQQYTLIIQATDMEGNPTYGLSNTATAVITVTDVNDNPPEFTAMTFYGEVPENRVDVIVANLTVTDKDQPHTPAWNARYQMTGGDPTGQFTILTDPNSNDGLVTVVKPIDFETNRMFVLTVAAENQVPLAKGIQHPPQSTATVSITVIDVNESPYFVPNPKLVRQEEGLLAGSMLTTFTARDPDRYMQQTSLRYSKLSDPANWLKIDPVNGQITTTAVLDRESIYVQNNMYNATFLASDNGIPPMSGTGTLQIYLLDINDNAPQVNPKEATTCETLQPNAINITAVDPDIDPNAGPFAFELPDSPPSIKRNWTIVRISGDHAQLSLRIRFLEAGIYDVPIVITDSGNPHASSTSVLKVKVCQCDINGDCTDVDRIVGAGLGT | binds |  | binding result [3]: binds
full length chicken N-cadherin with the mutation D1C expressed on K562 cells (receptor, UniProt P10288 165-912, looked up, whole, on cells; also called D1C cells; K562 D1C) CWVIPPINLPENSRGPFPQELVRIRSDRDKSLSLRYSVTGPGADQPPTGIFIINPISGQLSVTKPLDREQIASFHLRAHAVDVNGNQVENPIDIVINVIDMNDNRPEFLHQVWNGTVPEGSKPGTYVMTVTAIDADDPNAQNGMLRYRILSQAPSSPSPNMFTINNETGDIITVAAGLDREKVQQYTLIIQATDMEGNPTYGLSNTATAVITVTDVNDNPPEFTAMTFYGEVPENRVDVIVANLTVTDKDQPHTPAWNARYQMTGGDPTGQFTILTDPNSNDGLVTVVKPIDFETNRMFVLTVAAENQVPLAKGIQHPPQSTATVSITVIDVNESPYFVPNPKLVRQEEGLLAGSMLTTFTARDPDRYMQQTSLRYSKLSDPANWLKIDPVNGQITTTAVLDRESIYVQNNMYNATFLASDNGIPPMSGTGTLQIYLLDINDNAPQVNPKEATTCETLQPNAINITAVDPDIDPNAGPFAFELPDSPPSIKRNWTIVRISGDHAQLSLRIRFLEAGIYDVPIVITDSGNPHASSTSVLKVKVCQCDINGDCTDVDRIVGAGLGTGAIIAILLCIIILLILVLMFVVWMKRRDKERQAKQLLIDPEDDVRDNILKYDEEGGGEEDQDYDLSQLQQPDTVEPDAIKPVGIRRLDERPIHAEPQYPVRSAAPHPGDIGDFINEGLKAADNDPTAPPYDSLLVFDYEGSGSTAGSLSSLNSSSSGGEQDYDYLNDWGPRFKKLADMYGGGDD |  | binds | 
full length chicken N-cadherin with the mutation D27C expressed on K562 cells (receptor, UniProt P10288 165-912, looked up, whole, on cells; also called K562 D27C) DWVIPPINLPENSRGPFPQELVRIRSCRDKSLSLRYSVTGPGADQPPTGIFIINPISGQLSVTKPLDREQIASFHLRAHAVDVNGNQVENPIDIVINVIDMNDNRPEFLHQVWNGTVPEGSKPGTYVMTVTAIDADDPNAQNGMLRYRILSQAPSSPSPNMFTINNETGDIITVAAGLDREKVQQYTLIIQATDMEGNPTYGLSNTATAVITVTDVNDNPPEFTAMTFYGEVPENRVDVIVANLTVTDKDQPHTPAWNARYQMTGGDPTGQFTILTDPNSNDGLVTVVKPIDFETNRMFVLTVAAENQVPLAKGIQHPPQSTATVSITVIDVNESPYFVPNPKLVRQEEGLLAGSMLTTFTARDPDRYMQQTSLRYSKLSDPANWLKIDPVNGQITTTAVLDRESIYVQNNMYNATFLASDNGIPPMSGTGTLQIYLLDINDNAPQVNPKEATTCETLQPNAINITAVDPDIDPNAGPFAFELPDSPPSIKRNWTIVRISGDHAQLSLRIRFLEAGIYDVPIVITDSGNPHASSTSVLKVKVCQCDINGDCTDVDRIVGAGLGTGAIIAILLCIIILLILVLMFVVWMKRRDKERQAKQLLIDPEDDVRDNILKYDEEGGGEEDQDYDLSQLQQPDTVEPDAIKPVGIRRLDERPIHAEPQYPVRSAAPHPGDIGDFINEGLKAADNDPTAPPYDSLLVFDYEGSGSTAGSLSSLNSSSSGGEQDYDYLNDWGPRFKKLADMYGGGDD |  | binds | 
